Among the data in publication doi:10.1101/2022.05.31.494111 are GTPase rate of RabL2 with IFT81 (460-533)/74 (460-532) against RabL2 alone and Kd values, retold here.

Read-outs that look alike come from different tables or passages of the source.

A word on the Kd: it is the constant that tells how readily two partners part at equilibrium. A lower Kd goes with a tighter complex.

For experiment [1], the target named is minimal CrIFT81_(460-533)/CrIFT74_(460-532) complex (Chlamydomonas reinhardtii) (UniProt Q68RJ5).
The target in experiment [2] is CrIFT81_(152-C)/74_(150-C)/27/25_(1-136) complex (Chlamydomonas reinhardtii) (UniProt Q68RJ5). Briefly: ITC. (In general: ITC needs no label: the signal is the heat of the interaction.)
Experiment [3] deals with Chlamydomonas reinhardtii RabL2, wild type (Chlamydomonas reinhardtii). Description: ITC.
The target is the same in experiment [4]. Briefly: ITC. This is another data set of the same source.

Sequence of CrIFT81_(152-C)/74_(150-C)/27/25_(1-136) complex (Chlamydomonas reinhardtii) (Q68RJ5 152-683, chain 1 of 4): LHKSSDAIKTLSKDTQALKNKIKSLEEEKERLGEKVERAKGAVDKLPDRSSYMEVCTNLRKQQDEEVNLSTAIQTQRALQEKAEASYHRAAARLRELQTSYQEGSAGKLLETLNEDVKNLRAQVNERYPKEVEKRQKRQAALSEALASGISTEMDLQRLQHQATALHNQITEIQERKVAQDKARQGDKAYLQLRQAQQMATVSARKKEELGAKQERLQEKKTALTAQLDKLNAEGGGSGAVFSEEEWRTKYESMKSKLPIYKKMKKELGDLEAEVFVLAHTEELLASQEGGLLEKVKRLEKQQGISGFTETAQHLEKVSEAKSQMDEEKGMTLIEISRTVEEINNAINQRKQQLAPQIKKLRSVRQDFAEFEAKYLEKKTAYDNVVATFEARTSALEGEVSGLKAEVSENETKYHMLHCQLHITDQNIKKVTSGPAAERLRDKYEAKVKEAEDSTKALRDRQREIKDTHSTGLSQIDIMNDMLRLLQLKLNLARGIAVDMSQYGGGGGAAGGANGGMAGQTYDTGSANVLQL
Sequence of CrIFT81_(152-C)/74_(150-C)/27/25_(1-136) complex (Chlamydomonas reinhardtii) (Q6RCE1 150-641, chain 2 of 4, further chain): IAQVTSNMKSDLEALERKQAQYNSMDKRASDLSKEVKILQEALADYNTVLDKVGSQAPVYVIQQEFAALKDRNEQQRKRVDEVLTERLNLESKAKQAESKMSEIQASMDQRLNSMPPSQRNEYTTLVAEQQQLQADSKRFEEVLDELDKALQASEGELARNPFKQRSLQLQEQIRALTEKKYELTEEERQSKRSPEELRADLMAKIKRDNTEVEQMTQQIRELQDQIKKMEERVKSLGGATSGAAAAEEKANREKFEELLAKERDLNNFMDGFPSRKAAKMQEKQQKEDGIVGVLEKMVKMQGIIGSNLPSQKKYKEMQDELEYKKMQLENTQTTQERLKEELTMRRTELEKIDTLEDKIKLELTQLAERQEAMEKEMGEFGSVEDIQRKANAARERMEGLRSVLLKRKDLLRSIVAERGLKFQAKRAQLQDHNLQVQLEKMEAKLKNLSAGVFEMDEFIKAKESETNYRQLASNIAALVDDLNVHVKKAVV
Sequence of CrIFT81_(152-C)/74_(150-C)/27/25_(1-136) complex (Chlamydomonas reinhardtii) (A8HN58 whole entry, chain 3 of 4, further chain): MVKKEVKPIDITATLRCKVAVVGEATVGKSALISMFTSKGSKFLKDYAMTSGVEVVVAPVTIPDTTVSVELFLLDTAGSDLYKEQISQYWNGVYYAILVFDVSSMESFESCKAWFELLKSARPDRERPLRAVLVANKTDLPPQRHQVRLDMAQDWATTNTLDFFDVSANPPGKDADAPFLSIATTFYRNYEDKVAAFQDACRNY
Sequence of CrIFT81_(152-C)/74_(150-C)/27/25_(1-136) complex (Chlamydomonas reinhardtii) (B8LIX8 1-136, chain 4 of 4, further chain): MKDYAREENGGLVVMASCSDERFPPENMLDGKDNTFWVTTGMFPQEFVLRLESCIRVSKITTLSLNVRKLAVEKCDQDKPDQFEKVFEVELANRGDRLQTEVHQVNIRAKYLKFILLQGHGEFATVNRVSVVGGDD
Sequence of minimal CrIFT81_(460-533)/CrIFT74_(460-532) complex (Chlamydomonas reinhardtii) (Q68RJ5 460-533, chain 1 of 2): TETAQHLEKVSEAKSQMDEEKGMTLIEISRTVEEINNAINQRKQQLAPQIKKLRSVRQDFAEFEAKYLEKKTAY
Sequence of minimal CrIFT81_(460-533)/CrIFT74_(460-532) complex (Chlamydomonas reinhardtii) (Q6RCE1 460-532, chain 2 of 2, further chain): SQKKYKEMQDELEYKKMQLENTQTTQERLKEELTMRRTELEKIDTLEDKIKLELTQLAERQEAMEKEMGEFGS

As for “Chlamydomonas reinhardtii RabL2, wild type (natural protein)”, the GTPase rate of RabL2 with IFT81 (460-533)/74 (460-532) against RabL2 alone in experiment [1] was 5 fold.

As to “Chlamydomonas reinhardtii RabL2 Q83L (GTP-locked mutant) (natural protein)”, the Kd in experiment [2] came out at 590 nM.

For “Chlamydomonas reinhardtii CEP19 residues 1-208 (domain or fragment)”, the Kd in experiment [3] was found to be 12700 nM; in experiment [4], 280 nM.
